Experimental data as given in a protein production outcome set (Wang et al. 2014).

Test: label from the status in PepcDB records

Sequence: YESIDLKAVLFDMDGVLFDSMPNHAESWHKIMKRFGFGLSREEAYMHEGRTGASTINIVSRRERGHDATEEEIKAIYQAKTEEFNKCPKAERMPGALEVLTKIKSEGLTPMVVTGSGQTSLLDRLNHNFPGIFQANLMVTAFDVKYGKPNPEPYLMALKKGGFKPNEALVIENAPLGVQAGVAAGIFTIAVNTGPLHDNVLLNEGANLLFHSMPDFNKNWETLQSALKQ
- protein production: failed

Sequence: MKFGRKCRIIVFISLVLFTFPVFSQDKNFTDKPSSSDKRVASEEFRRGVQAYYRGTFNEAILLFEKALSYLPDESLILDWLGKAYYSSGVEGAALTQWELAEAAGYGGMLLKNKIEILKESRSLTPYSSDNIKYVENSSFSSKNGTVELFRQPLSIAAVSDGSFWMTAYGSNELLHFNVNGIILDRTKGPIQGFDRPFDVIALSDGNLLVSEFAADRISLLDKNGSFIKSFGTRGRGNGEFIGPQFLAEDEYGNIYVCDFGNARIVVFSSAGEPLFTFGKKSGLFGGFTAPAGIAVVDGLVYIADAIKGAVYTFDTAGNFVQSLLPEGTLKQIESLREWNGNLVASAGNKAYLIDIAFSTVSELTSLGNVPTKITAAVPDVNGSLLLIDHKNQTVEITSRINELAGGLFVLIKKVYSDKFPEVLVEVSVQNRDGKQIVGLTQDNFIITEGNRPVADYSLTGSSYLNKTCDIAVIVERSPNSLKEKALIEAALKEIAEAMQGRGKISLISASSIPALEGKFSPADLITLPNRIKTPASSDWKLDLALRLAVGELINAEQKRAVLFLNFSDPNSDNFKQYNLNDLASYMKNNNIRFYPISLKKGAPASEMSYLAKKTGGKTSYIYAERGLKPLIDDIIEKPLGMYQLKYTSTMSTDFGRSFLPVEVEVQLLERSGRDEIGYFAPLE
- protein production: failed

Sequence: MIRRALLIASLAALAGCAGLDAIQNAYQGIQDYFTGKDNAEPPAPLAEITPQVKADKLWMAEIGDGYDDQGINLGPAVDDSRVFAAERHGTVQAFNRLTGEKLWSVDHEMDLSAGPVFDDGELFLATAEGAVIVLNAADGALVWKSTLASEILSVPAVADDVVVVRGTNGHLTGLDRKSGATLWYFERHAPPLAIRSRGAPIIAGDLVIDGFGGGKVSAIQLKEGRLDWEANVSLPHGRSEIERLVDLSATPVVRNDVVFVSGYQGGTASLGLNTGEVQWKRESISSPAGMTADRRELYVTDANADLWQLAIRNGEDQWKQTELHQRRLTAPALVKDYLVVGDFEGYLHVLNKEDGRIVGRVQVTDAPIEYPPVVYGDIVYVYATDGTLAAITVD
- protein production: failed

Sequence: MLVSEAVLPLLFYGILTPVYQVILRGKISNVKGFYLAWITAPFLVGYFFYSTLVEVFLLLIFNIIGYIIVLKNKYKYIFPLLLFSAVIIQIFYILTTLHTIHG
- protein production: failed

Sequence: MSRFMARIMVNGLNEPGTLAKVAQTVAGLDVNIRLLNTVRVAADFTEMMLEVEVWDLRQLNQLLAQMKELDCIATVRRLYELEHHHHHH
- protein production: not failed

Sequence: MRIGMRLLLGYFLLVAVAAWFVLAIFVKEVKPGVRRATEGTLIDTATLLAELARPDLLSGDPTHGQLAQAFNQLQHRPFRANIGGINKVRNEYHVYMTDAHGKVLFDSANKAVGQDYSRWNDVWLTLRGQYGARSTLQNPADPESSVMYVAAPIMGGSRLIGVLSVGKPNAAMAPVIKRSERRILWASAILLGIALVIGAGMVWWINRSIARLTRYADSVTDNKPVPLPDLGSSELRKLAQALESMRVKLEGKNYIEQYVYALTHELKSPLAAIRGAAEILREGPPPEVVARFTDNILTQNARMQALVETLLRQARLENRQEVVLTAVDVAALFRRVSEARTVQLAEKNITLHVMPTEVNVAAEPALLDQALGNLLDNAIDFTPESGCITLSAEVDQEHVTLKVLDTGSGIPDYALSRIFERFYSLPRANGQKSSGLGLAFVSEVARLFNGEVTLRNVQEGGVLASLRLHRHFT
- protein production: failed

Sequence: MAEARPDSLTRSRAAKPAGEGAAFSPLYRQIKELLVQSLDRGEWKPGELIPSEIDLAARFQVSQGTVRKAVDELAAEHLLLRRQGKGTFVATHHEARVRYRFLRLAPDEEGEGGRAESRILECRRLRAPAEIARALELRAGETVVTIRRQLSMNHMPTVIDDLWLPGTHFRGLTLELLTASKAPLYGLFESEFGVSMVRADEKLRAVAASPEIAPLLGVEPGRPLLQVDRISYTYGDRPMEVRRGLYLTDHYHYRNSLN
- protein production: not failed

Sequence: MFYITSKKVPFVTYSKNVFIPVTNICRNQCGYCGFRREPGQPGARLMKPEEVISVLENGVRAGCTEALFTFGERAEEVPGYGEMLEEIGYSSTLEYLVFLCETAIDIGILPHTNAGIMTRSELEALKPLNASMGLMLESTAVLAAHKDCPGKIPERRLETIREAGKLKIPYTTGLLIGIGESRDDRIESLEAIAALHREYGHIQEVIIQNFAPKPGTEMENFPEPAVEEMMDSVELAARILPGDVAVQVAPNLIDPKSLIAKGVTDLGGISPLTIDWINPEAEWPDVKNLQKKLGDIPLKERLPVYPPYVKKGWYSERIGSLIKRLEHHHHHH
- protein production: failed

Sequence: MNVVVTGGRGSSGRWIVDRLVGPHDVTVLDRRLPDDEGHPAVEYQALDLTDAGGVFDTLTAIDPDAVVHWAAIPVAGNHPGVDLFQNNTLAAHNVLSAAGRVGADVVQGSSDGAYGFFFAEETPVPDELPITEKHARRPEDDYGLSKVVTEEIGKTIARRDGISVASIRPSWIQIPGEYPCRSEDYVDDLAAGAGNYWSYVDVRDVADLVEAALTADVAGHETFNCVGPDNALGRPLVELMRDHYGRVPDDCTVEGDAAAYSTAKATERLGWEPTRSWREAADVDVDVPTV
- protein production: failed

Sequence: MVNTRNIIRQFTPNWFTTIMGTGVVAIVLGHFSELHTLGAALWLINTCLFCVFCILYMLRWSLFPHEARQIFHHPSMSLFLGAIPMALATLINGLLMYGNTVFGQHLPQLALWLWYIDVVLVISIGWVVPYFMFSRQQHHLHSITAMWLLPIVAAEVAAATGGLLVAEFVHSTQAISILWLSYMLWGMSVLPAFAILSLLILRLALHKLPEKELAISSWLSIGPIGTGALAMMLLGQHAPDVLQSIGMQSFGIFLQQAAKLISLVLLGCGVWWLGIAMFASLHHLKHGIPFNLGWWGLTFPLGVFTLALSQLGQLLGWNAFDHIAVILSVILVGLWSCVAVKTIQGAYRGQLFFSPCLQQLQQQQKACAQSETA
- protein production: failed

Sequence: HSAIVILDSRGNIQRFNRLCEDYTGLKEHDVIGQSVFKLFMSRREAAASRRNNRVFFRSGNAYEVELWIPTRKGQRLFLFRNKFVHSGSGKNEIFLICSGTD
- protein production: failed

Sequence: MCGTRSSAQTSKTSLCALLLSAAMSLVLAAPASAAADCIAGSKAAPAELITSCSAIIDQAANSSSDRAAALLVRADANARTSGGLTQALRDIDRAIALDGKNAKAWRLRGDLLREAGGDLNRAAADLSKAIELDPQDAESYELRGVVYTSQRRLDRALADYDQAIKLKPGDAQAWSDRGVTYYLGGDNEKAIRDLSEALRLDPNRPRTYTNRGAAYKKLGQLDKSVADAAEAIRLDPKVPEYYDNRGLSLAAMGDYDKAIADYDQALRLAPKPNFFTNRGDSYQFKGEFGAALSDYESALKLDPNFAQTYNNRAVLYKKMGERRKALADYETALKLDPGNDNAANGRRTMIAEIAKFGDEPRRPLAANSGNGPSFDCATAKREVEKVICADPELGVLDRQIAETYERVLKSANRRSAGDLRRTQRDFLATRNSSFGRPGYDLRKVMQERLQRLNAMEG
- protein production: failed

Sequence: MGSGWGPLEPWDRLAQPRPATGRLAAPPHCPPALPLHSAAPGSRTGTGAMERTAGKELALAPLQDWGEETEDGAVYSVSLRRQRSQRSTPEGSGDGQTPIPAMDTFLQYRTSKVRALRAARLERLVHELVSGDREQDPGFVPAFLATHRAFVPTARVLGFLLPPPPPPPPPPAGVDSKRTEGQDLNFSKNLRAVVSVLGSWLRDHPQDFRDPPDHQNLGDVRIFLGWAAPGGAEVREAEKLLEDFLKEAKEEQTEGEQRLAWAGPPWAAQSPRSEFAEDYSEEEGLRSEGPELLDFSVDEVAEQLTLMDVELFLRVRSCECLGSMWSQRDRPGAAGISPTVRATVAQFNAVTGCVLGSVLAAPGLAASQRAQRIEKWIRIAQRCRELRNFSSLRAILSALQSNPIYRLKRSWGAVSREPLSVFRKLSQIFSDEDNHLSSRAILSQEETTEGPQGDDCSPGSLPSKLPPGPVPYLGTFLTDLVMLDTALPDMLKGNLINFEKRRKEWEILARIQQLQHRCQHYSLSPRPPILAALRAQRQLSEEQSYRVSRVIEPPAASCPSSPRIRRRISLTKRLSAKLSREKNQSPGGSPGDPPSPTSSVSPGSPPASPRSQDPPPGSPPASPGPQSPSTKLSLSMEPPGPWPMTLTPSSSRTPLLGQQTSEARVIRVSINNNHGNLYRSILLTCQDKAPSVVQRALEKHNVPQPWARDYQLLQVLPGDRELLIPDSANVFYAMNPAAPGDFLLRRKEGTGHTPSASPS
- protein production: failed

Sequence: SDRKVAREFRHKVDFLIENDAEKDYLYDVLRMYHQTMDVAVLVGDLKLVINEPSRLPLFDAIRPLIPLKHQVEYDQLTPRRSRKLKEVRLDRLHPEGLGLSVRGGLEFGCGLFISHLIKGGQADSVGLQVGDEIVRINGYSISSCTHEEVINLIRTKKTVSIKVRHIGLIPVKSSPDEPLTWQYVDQFVSESGGVRGSLGSPGNRENKEKKVFISLVGSRGLGCSISSGPIQKPGIFISHVKPGSLSAEVGLEIGDQIVEVNGVDFSNLDHKEGRELFMTDRERLAEARQRELQRQELLMQKRLAMESNKILQEQQEMERQRRKEIAQKAAEENERYRKEMEQIVEEEEKFKKQWEEDWGSKEQLLLPKTITAEVHPVPLRKPKYDQGVEPELEPADDLDGGTEEQGEQDFRKYEEGFDPYSMFTPEQIMGKDVRLLRIKKEGSLDLALEGGVDSPIGKVVVSAVYERGAAERHGGIVKGDEIMAINGKIVTDYTLAEADAALQKAWNQGGDWIDLVVAVCPPKEYDDELTFF
- protein production: failed

Sequence: MKKITKMVISSVLATVLMTACSQSSQNGQSDVKHIGILQYVEHPSLTATRKGFIKELAKEGYKDGKNIKIEYKNAQGDQSNIQSISEKLIKDNKLVLGIATPAAQSLTTVSTETPILFTAVTDPVSAELVKSMKKPEGLATGTSDMSPIKKQVSLLRKVMPKVKRVGIMYTTSERNSEVQVKQAKKIFQEAGIKTSVKGISSTNDVQDTAKSLMSKTEVIFVPTDNIIASSVTLLGNLSKELKVPVVGGSADMVPSGLLFSYGADYEALGRQTARQAVKILKGKDVAKVPSEYPQNLKVVVNEDMAKELGIDVSSIKNNK
- protein production: failed

Sequence: MKGILFAVFAGIFITLQGTFNAKLSSHIGIWSTSIITHLIGFIIATTVFLLKKEEKVTDLKSVKKIYLVAGAFGGFIICAETMAIYSLGVTLTAGTLMAAQLLTATVIEMKGLFHIKKIQMERYHIVGTIVMIIGIVVFNM
- protein production: failed

Sequence: MAVAGAVSGEPLVHWCTQQLRKTFGLDVSEEIIQYVLSIESAEEIREYVTDLLQGNEGKKGQFIEELITKWQKNDQELISDPLQQCFKKDEILDGQKSGDHLKRGRKKGRNRQEVPAFTEPDTTAEVKTPFDLAKAQENSNSVKKKTKFVNLYTREGQDRLAVLLPGRHPCDCLGQKHKLINNCLICGRIVCEQEGSGPCLFCGTLVCTHEEQDILQRDSNKSQKLLKKLMSGVENSGKVDISTKDLLPHQELRIKSGLEKAIKHKDKLLEFDRTSIRRTQVIDDESDYFASDSNQWLSKLERETLQKREEELRELRHASRLSKKVTIDFAGRKILEEENSLAEYHSRLDETIQAIANGTLNQPLTKLDRSSEEPLGVLVNPNMYQSPPQWVDHTGAASQKKAFRSSGFGLEFNSFQHQLRIQDQEFQEGFDGGWCLSVHQPWASLLVRGIKRVEGRSWYTPHRGRLWIAATAKKPSPQEVSELQATYRLLRGKDVEFPNDYPSGCLLGCVDLIDCLSQKQFKEQFPDISQESDSPFVFICKNPQEMVVKFPIKGNPKIWKLDSKIHQGAKKGLMKQNKAV
- protein production: not failed

Sequence: MAEPGIDKLFGMVDSKYRLTVVVAKRAQQLLRHGFKNTVLEPEERPKMQTLEGLFDDPNAETWAMKELLTGRLVFGENLVPEDRLQKEMERIYPGEREE
- protein production: not failed
